Measurements reported in the supplement of paper PMC7877785.
± gives the uncertainty stated by the source.

Assay: self-splicing fitness, log relative to wild type (ln ratio); higher = more splicing; Tetrahymena group I intron in knt gene, E. coli kanamycin selection, DiMSum; sequences stand for … in CUCUCU…GGAGGGAAAAGUUAUCAGGCAUGCACCUGGUAGCUAGUCUUUAAACCAAUAGAUUGCAUCGGUUUAAAAGGCAAGACCGUCAAAUUGCGGGAAAGGGGUCAACAGCCGUUCAGUACCAAGUCUCAGGGGAAACUUUGAGAUGGCCUUGCAAAGGGUAUGGUAAUAAGCUGACGGACAUGGUCCUAACCACGCAGCCAAGUCCUAAGUCAACAGAUCUUCUGUUGAUAUGGAUGCAGUUCACAGACUAAAUGUCGGUCGGGGAAGAUGUAUUCUUCUCAUAAGAUAUAGUCGGACCUCUCCUUAAUGGGAGCUAGCGGAUGAAGUGAUGCAACACUGGAGCCGCUGGGAACUAAUUUGUAUGCGAAAGUAUAUUGAUUAGUUUUGGAGUACUCGUGGUCG
Summary of the method: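 Colonies from six replicate transformations of E. coli BL21(DE3) were pooled and amplicon-sequenced on an Illumina HiSeq 2500. The library placed an intron with all eight P1ex-region nucleotides randomised inside the knt kanamycin-resistance gene on pET-22b(+), and cells grew overnight at 37°C or 30°C on LB agar with or without 25 μg/mL kanamycin (plus 100 μg/mL carbenicillin, 50 μM IPTG, 0.2% rhamnose). Fitness is the DiMSum error-weighted combination of wild-type-normalised replicate fold changes, kanamycin versus none.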

Row | Sequence | self-splicing fitness (ln) (30 °C) | self-splicing fitness (ln) (37 °C)
1 | ACUUAGCAAUAUUACGACUA | -1.81 ± 0.17 | -0.513 ± 0.14
2 | CUUUAGCAAUAUUACGGGGC | -3.44 ± 0.28 | -2.54 ± 0.38
3 | UGACAGCAAUAUUACGUGAU | -3.05 ± 0.11 | -0.351 ± 0.084
4 | CGUUAGCAAUAUUACGUAAG | -0.652 ± 0.1 | -0.0337 ± 0.14
5 | GGAGAGCAAUAUUACGGUUA | -3.19 ± 0.38 | 
6 | CACGAGCAAUAUUACGCCAU | -2.82 ± 0.27 | -2.55 ± 0.33
7 | CCUCAGCAAUAUUACGGAGU | -2.26 ± 0.089 | -1.03 ± 0.09
8 | GUUCAGCAAUAUUACGCCUG | -1.97 ± 0.2 | -0.936 ± 0.22
9 | GGGAAGCAAUAUUACGAAGC | -2.84 ± 0.23 | -1.75 ± 0.34
10 | UUCAAGCAAUAUUACGAACG | -4.29 ± 0.36 | -2.46 ± 0.25
11 | AGAUAGCAAUAUUACGGGCA | -1.12 ± 0.13 | 0.0415 ± 0.12
12 | UUCAAGCAAUAUUACGCAUC | -3.87 ± 0.29 | -1.81 ± 0.17
13 | CUAAAGCAAUAUUACGUUGU | -3.91 ± 0.12 | -3.06 ± 0.15
14 | GACGAGCAAUAUUACGCUAA | -2.64 ± 0.35 | -2.25 ± 0.31
15 | CACCAGCAAUAUUACGCGAA | -4.18 ± 0.21 | -2.04 ± 0.12
16 | UAAUAGCAAUAUUACGGCAG | -1.08 ± 0.1 | -0.425 ± 0.13
17 | UUAUAGCAAUAUUACGGGCA | -2.37 ± 0.18 | -1.32 ± 0.19
18 | CAAGAGCAAUAUUACGCUCG | -2.16 ± 0.44 | -1.26 ± 0.41
19 | GGCUAGCAAUAUUACGUGUA | -0.9 ± 0.093 | -0.236 ± 0.095

Row | Sequence | self-splicing fitness (ln) (30 °C) | self-splicing fitness (ln) (37 °C)
20 | GGACAGCAAUAUUACGUGCU | -0.778 ± 0.11 | -0.685 ± 0.13
21 | CUCCAGCAAUAUUACGCUCC | -2.73 ± 0.3 | 
22 | UGAUAGCAAUAUUACGGUUG | -0.902 ± 0.072 | 0.392 ± 0.11
23 | AGAUAGCAAUAUUACGUUCG | -0.335 ± 0.1 | 0.123 ± 0.14
24 | CAGUAGCAAUAUUACGCCUA | -0.488 ± 0.14 | -0.218 ± 0.15
25 | CGACAGCAAUAUUACGAGCG | -2.02 ± 0.13 | -0.549 ± 0.099
26 | GGUCAGCAAUAUUACGUCCG | -0.0947 ± 0.13 | -0.124 ± 0.19
27 | GGAAAGCAAUAUUACGCCCA | 0.064 ± 0.16 | 0.325 ± 0.23
28 | CAAAAGCAAUAUUACGCAGU | -4.31 ± 0.24 | -3.64 ± 0.27
29 | AAAGAGCAAUAUUACGAAGG | -3.52 ± 0.33 | -2.64 ± 0.41
30 | UGGGAGCAAUAUUACGGGCC | -2.63 ± 0.32 | -1.92 ± 0.35
31 | UUAAAGCAAUAUUACGACUG | -0.0352 ± 0.08 | 0.184 ± 0.12
32 | CCUAAGCAAUAUUACGUACG | -1.94 ± 0.13 | -0.851 ± 0.13
33 | GCGGAGCAAUAUUACGUCCG | -0.898 ± 0.32 | -0.455 ± 0.25
34 | CUGCAGCAAUAUUACGGUUU | -3.11 ± 0.13 | -1.43 ± 0.12
35 | GGUUAGCAAUAUUACGAUGA | -0.915 ± 0.12 | -0.286 ± 0.13
36 | GAAGAGCAAUAUUACGGCCA | -1.59 ± 0.3 | -1.27 ± 0.5
37 | CGGGAGCAAUAUUACGUAGU |  | -1.78 ± 0.29
38 | CUAGAGCAAUAUUACGUCAC | -3.34 ± 0.36 | -1.72 ± 0.29
